For experiment [1], the target named is CD16A endogenously expressed on primary human NK cells (human, UniProt P08637 17-254). Nature of the experiment: flow cytometry on primary human NK cells, with 10 mg/mL polyclonal human IgG as competitor, range of 4 experiments. The protocol: 4° C., and resuspended in 50 μL/well of diluted antibody constructs. […] After 40-50 minutes' incubation at 37° C., cells were washed 3-times with ice-cold FACS buffer. […] After the final incubation step, cells were washed 2-times with ice-cold FACS buffer, and the cell pellet was resuspended in 50 μL FACS buffer. Fluorescence intensity of >1×10⁴ viable cells was analyzed by flow cytometry and the median fluorescence intensity (MFI) was determined for each sample.
(§1) Equilibrium dissociation constants (KD) of antibody binding were calculated by plotting MFI values and fitting a non-linear regression model for one-site binding to hyperbolic dose-response curves using GraphPad Prism.
In general terms: A flow cytometer gives signals particle by particle.

Experiment [2] deals with T1, human FOLR1 endogenously expressed on tumor cell lines (human, UniProt P15328 25-234).
T1 construct: whole, on cells; also called FOLR1-positive tumor cell lines; FOLR1+ target cells
As to the kind of experiment: flow cytometry on OVCAR-3 cells, 37 C, one-site fit of MFI, mean. As for the experimental part:
(§2) Cells were collected and centrifuged at 400×g, 5 min, 4° C. Cell pellets were resuspended in FACS buffer (PBS (Invitrogen, cat.: 392-0434) containing 2% h.i. FCS (Invitrogen, cat.: 10500-064), and 0.1% sodium azide (Sigma, cat.: S8032)) at 1-5×10⁶ cells/mL. 100 μL/well of the cell suspension were transferred into U-shaped, 96-well micro plates (0.1-0.5×10⁶ cells per well), cells were pelleted at 400×g, 5 min, 4° C., and resuspended in 100 μL/well of serial dilutions of the indicated antibodies in FACS buffer. After 40-50 min incubation at 37° C., cells were washed 3-times with ice-cold FACS buffer. […] After the final incubation step, cells were washed 2-times with ice-cold FACS buffer, and the cell pellet was resuspended in 100 μL FACS buffer. Fluorescence intensities of >1×10⁴ viable cells were analyzed by flow cytometry and the median fluorescence intensity (MFI) was determined for each sample.
Equilibrium dissociation constants (KD) of antibody binding, mean and standard deviation (SD) were calculated by plotting MFI values and fitting a non-linear regression model for one-site binding to hyperbolic dose-response curves using GraphPad Prism for Windows (v9; GraphPad Software; La Jolla California USA).
Specific antibody binding capacity (SABC) as a marker for FOLR1 expression level on cells was determined on all tumor cell lines using QIFIKIT.

Experiment [3] concerns the target T2, human FOLR1 expressed on CHO cells (cAg_125) (human, UniProt P15328 25-234).
T2 construct: whole, on cells; also called huFOLR1
Nature of the experiment: flow cytometry on huFOLR1 CHO cells (cAg_125), one-site fit of MFI, Exp. 2. As for the experimental part: (§3) To analyze binding of different antibody constructs to CHO cells transfected with human FOLR1 (cAg_125) and cynomolgus FOLR1 (cAg_126), 1-5×10⁵ were resuspended in 100 μL FACS buffer (PBS (BioWest, cat.: L0615-500) containing 2% heat-inactivated FCS (Invitrogen, cat.: 10500-064), and 0.1% sodium azide (Sigma, cat.: S8032_100G)) in round-bottom 96-well microtiter plates. After washing in FACS buffer, cells were incubated in 50 μL FACS buffer without antibodies or with titrated antibodies starting at a concentration of 1000 nM followed by eleven 3-fold serial dilutions for 40-50 min on ice in the dark. […] After washing, binding was measured by flow cytometry and mean fluorescence intensities (MFI) of cell samples were calculated and corrected for background staining using control cells stained with secondary antibodies only.
(§4) Binding of antibody constructs to huFOLR1-as well as cyFOLR1-transfected CHO cells was measured by flow cytometry. Equilibrium dissociation constants (KD) of antibody binding were calculated by plotting MFI values and fitting a non-linear regression model for one-site binding to hyperbolic dose-response curves using GraphPad Prism.

The target in experiment [4] is T3, human CD16A (158F) expressed on CHO cells (cAg_34) (human, UniProt P08637 17-254).
T3 construct: also called huCD16A-transfected CHO cells
Nature of the experiment: flow cytometry on huCD16A (158F) CHO cells (cAg_34), one-site fit of MFI, mean. The protocol:
(§5) After washing in FACS buffer, cells were incubated in 50 μL FACS buffer without antibodies or with titrated antibodies starting at a concentration of 1000 nM followed by elven 3-fold serial dilutions for 40-50 min on ice in the dark. […] After washing, binding was measured by flow cytometry and mean fluorescence intensities (MFI) of cell samples were calculated and corrected for background staining using control cells stained with secondary antibodies only.
as §1

In experiment [5] the target is T4, cynomolgus FOLR1 expressed on CHO cells (cAg_126) (cynomolgus, UniProt A0A2K5U044 25-234).
T4 construct: whole, on cells; also called cyFOLR1
Nature of the experiment: flow cytometry on cyFOLR1 CHO cells (cAg_126), one-site fit of MFI, Exp. 2. As for the experimental part:
as §3, §4

Experiment [6] deals with T2, human FOLR1 expressed on CHO cells …. As to the kind of experiment: flow cytometry on huFOLR1 CHO cells (cAg_125), one-site fit of MFI, Exp. 1. The protocol:
as §3, §4

Experiment [7] addresses T5, cynomolgus CD16 expressed on CHO cells (cAg_36) (cynomolgus, UniProt Q8SPW2 17-254).
T5 construct: whole, on cells; also called cyCD16
Nature of the experiment: flow cytometry on cyCD16 CHO cells (cAg_36), one-site fit of MFI, mean. As for the experimental part:
as §5, §1

The target of experiment [8] is T6, human CD16A (158V) expressed on CHO cells (cAg_35) (human, UniProt P08637 17-254).
T6 construct: also called huCD16A (158V)
Nature of the experiment: flow cytometry on huCD16A (158V)-transfected CHO cells (printed sAg_35), on ice, FITC goat anti-human IgG detection. The protocol:
as §5

In experiment [9] the target is T5, cynomolgus CD16 expressed on CHO cells …. As to the kind of experiment: flow cytometry on cyCD16 CHO cells (cAg_36), one-site fit of MFI, Exp. 3. As for the experimental part:
as §5, §1

Experiment [10] deals with T3, human CD16A (158F) expressed on CHO …. As to the kind of experiment: flow cytometry on huCD16A (158F) CHO cells (cAg_34), one-site fit of MFI, Exp. 3. As for the experimental part: as §5, §1
Experiment [11] deals with T1, human FOLR1 endogenously expressed on …. As to the kind of experiment: flow cytometry on OVCAR-3 cells (FOLR1 medium) at 37 °C, FITC anti-human IgG detection. As for the experimental part: as §2

The results in this text go back to patent US20240417475A1 (AFFIMED, published 2024).

T3 sequence (P08637 17-254 limits assumed): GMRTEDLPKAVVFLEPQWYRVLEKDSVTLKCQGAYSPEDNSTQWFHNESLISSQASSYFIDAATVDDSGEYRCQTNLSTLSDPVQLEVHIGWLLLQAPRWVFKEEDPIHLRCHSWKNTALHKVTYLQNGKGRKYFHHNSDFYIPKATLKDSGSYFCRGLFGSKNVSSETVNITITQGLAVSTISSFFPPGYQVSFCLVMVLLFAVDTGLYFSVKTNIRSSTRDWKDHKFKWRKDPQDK
T5 sequence (Q8SPW2 17-254): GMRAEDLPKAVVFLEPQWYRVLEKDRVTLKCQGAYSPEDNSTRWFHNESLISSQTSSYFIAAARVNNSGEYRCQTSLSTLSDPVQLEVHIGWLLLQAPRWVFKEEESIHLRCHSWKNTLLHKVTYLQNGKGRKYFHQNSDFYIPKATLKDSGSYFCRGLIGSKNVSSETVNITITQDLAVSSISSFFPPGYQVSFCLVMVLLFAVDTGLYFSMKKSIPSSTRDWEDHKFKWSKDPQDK
T2 sequence (P15328 25-234): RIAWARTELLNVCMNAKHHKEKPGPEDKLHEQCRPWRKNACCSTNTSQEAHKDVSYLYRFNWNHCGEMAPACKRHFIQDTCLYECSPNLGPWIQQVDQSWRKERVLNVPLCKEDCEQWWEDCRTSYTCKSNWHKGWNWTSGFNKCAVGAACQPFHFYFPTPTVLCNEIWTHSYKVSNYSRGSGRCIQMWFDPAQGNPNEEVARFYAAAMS
T4 sequence (A0A2K5U044 entry or part of it): as the sequence (P15328 25-234) above, with I2T, W4R, R37K, A146P, H171Y counted along it
CD16A endogenously expressed on primary human NK cells, sequence (P08637 17-254 limits assumed): as the sequence (P08637 17-254 limits assumed) above
T1 sequence (P15328 25-234): as the sequence (P15328 25-234) above
T6 sequence (P08637 17-254 F176V limits assumed): as the sequence (P08637 17-254 limits assumed) above, with F160V counted along it

B1: scFv-IgAb_387 (FOLR1_1×CD16a3) (bispecific antibody)
heavy: EVQLVESGGGVVQPGRSLRLSCSASGFTFSGYGLSWVRQAPGKGLEWVAMISSGGSYTYYADSVKGRFAISRDNAKNTLFLQMDSLRPEDTGVYFCARHGDDPAWFAYWGQGTPVTVSSASTKGPSVFPLAPSSKSTSGGTAALGCLVKDYFPEPVTVSWNSGALTSGVHTFPAVLQSSGLYSLSSVVTVPSSSLGTQTYICNVNHKPSNTKVDKKVEPKSCDKTHTCPPCPAPEFEGGPSVFLFPPKPKDTLMISRTPEVTCVVVAVSHEDPEVKFNWYVDGVEVHNAKTKPREEQYNSTYRVVSVLTVLHQDWLNGKEYKCKVSNKALPAPIEKTISKAKGQPREPQVYTLPPSREEMTKNQVSLTCLVKGFYPSDIAVEWESNGQPENNYKTTPPVLDSDGSFFLYSKLTVDKSRWQQGNVFSCSVMHEALHNHYTQKSLSLSPGGGGGSGGGGSGGGGSGGGGSGGGGSGGGGSSYELTQPLSVSVALGQTARITCGGNNIGSKSVHWYQQKPGQAPVLVIYQDKKRPSGIPERFSGSNSGNTATLTISRAQAGDEADYYCQVWDDYIVLFGCGTKLTVLGGSGGSGGSGGSGGSGGSGGSQVQLVQSGAEVKKPGASVKVSCKASGYTFTNYYMQWVRQAPGQCLEWMGIINPSGGVTSYAQKFQGRVTMTRDTSTSTVYMELSSLRSEDTAVYYCARGSAYYYDFADYWGQGTLVTVSSG
light: DIQLTQSPSSLSASVGDRVTITCSVSSSISSNNLHWYQQKPGKAPKPWIYGTSNLASGVPSRFSGSGSGTDYTFTISSLQPEDIATYYCQQWSSYPYMYTFGQGTKVEIKRTVAAPSVFIFPPSDEQLKSGTASVVCLLNNFYPREAKVQWKVDNALQSGNSQESVTEQDSKDSTYSLSSTLTLSKADYEKHKVYACEVTHQGLSSPVTKSFNRGEC
modifications: Chemically biotinylated (NHS-PEG4-biotin) in Example 22 only.
notes: Tetravalent bispecific scFv-IgAb; also called FOLR1×CD16A scFv-IgAb_387; FOLR1/CD16A scFv-IgAb_387; copies: 2 + 2
Usually Kd stands for the free concentration of one partner at which half of the binding sites on the other are occupied at equilibrium, for simple one-to-one binding. The low end stands for higher affinity, the high end for lower affinity. What is called EC50 (read off the curve) is the concentration that produces a half-maximal response. In the case of B1, the dissociation constant Kd in [1] was 14.3 to 36.4 nM; in experiment [2], 1.7 nM; in experiment [3], 31.6 nM; in [4] it was 21.5 nM; in [5], 15.3 nM; in experiment [6], 35.1 nM. The values for the Kd in [7], in [9] and in [10] were 25.2 nM, 22.8 nM and 19.9 nM, respectively. Moreover, the entries for the “EC50 (read off the curve)” value in [8] and in experiment [11] were roughly 50 nM and roughly 2 nM, respectively.

B2: scFv-IgAb_381 (FOLR1_1×CD16a4) (bispecific antibody)
chain 1: EVQLVESGGGVVQPGRSLRLSCSASGFTFSGYGLSWVRQAPGKGLEWVAMISSGGSYTYYADSVKGRFAISRDNAKNTLFLQMDSLRPEDTGVYFCARHGDDPAWFAYWGQGTPVTVSSASTKGPSVFPLAPSSKSTSGGTAALGCLVKDYFPEPVTVSWNSGALTSGVHTFPAVLQSSGLYSLSSVVTVPSSSLGTQTYICNVNHKPSNTKVDKKVEPKSCDKTHTCPPCPAPEFEGGPSVFLFPPKPKDTLMISRTPEVTCVVVAVSHEDPEVKFNWYVDGVEVHNAKTKPREEQYNSTYRVVSVLTVLHQDWLNGKEYKCKVSNKALPAPIEKTISKAKGQPREPQVYTLPPSREEMTKNQVSLTCLVKGFYPSDIAVEWESNGQPENNYKTTPPVLDSDGSFFLYSKLTVDKSRWQQGNVFSCSVMHEALHNHYTQKSLSLSPGGGGGSGGGGSGGGGSGGGGSGGGGSGGGGSSYELTQPLSVSVALGQTARITCGGHNIGSKNVHWYQQKPGQAPVLVIYQDNKRPSGIPERFSGSNSGNTATLTISRAQAGDEADYYCQVWDNYNVLFGCGTKLTVLGGSGGSGGSGGSGGSGGSGGSQVQLVQSGAEVKKPGASVKVSCKASGYTFTSYYMHWVRQAPGQCLEWMGAIEPTYGSTSYAQKFQGRVTMTRDTSTSTVYMELSSLRSEDTAVYYCARGSAYYYDFADYWGQGTLVTVS
chain 2: B1 light
notes: also called FOLR1×CD16A scFv-IgAb_381
On to B2, for which the Kd in [3] came to 24.4 nM; in [4] it was 26.2 nM; in [5], 11.8 nM; in [6], 20.3 nM; in experiment [7], 32.8 nM; in [9], 28.2 nM. The molecule also registered an equilibrium dissociation constant (Kd) in experiment [10] of 27.1 nM. The “EC50 (read off the curve)” value in experiment [8] is roughly 60 nM.
